The results in this text go back to article PMC5007439.

The target of this test is T1, bacteriophage MS2 coat protein (bacteriophage MS2), P03612.
T1 chain: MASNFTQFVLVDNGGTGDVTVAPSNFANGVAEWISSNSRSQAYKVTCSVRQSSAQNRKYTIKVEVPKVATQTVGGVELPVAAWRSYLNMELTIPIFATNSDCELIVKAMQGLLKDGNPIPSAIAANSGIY
Description: cryo-EM structure; single particle cryo-EM of purified MS2 virions (coat protein, A-protein and RNA genome); icosahedral reconstruction at 4.1 Å and asymmetric reconstruction at 8.7 Å. To be noted: remark: other sources report otherwise.

B1: bacteriophage MS2 coat protein, P03612 1-130 (natural protein)
chain: MASNFTQFVLVDNGGTGDVTVAPSNFANGVAEWISSNSRSQAYKVTCSVRQSSAQNRKYTIKVEVPKVATQTVGGVELPVAAWRSYLNMELTIPIFATNSDCELIVKAMQGLLKDGNPIPSAIAANSGIY
For B1, the stoichiometry N came to 178 copies.

A word on the stoichiometry N: it is a count of units in the complex or per binding partner.
